Data taken from patent US20170183403A1.

Target: T1, Reference peptide no. 48
T1 sequence (peptide): PKLTRMLTFKFAMPK
Assay: peptide microarray (RepliTope), Ala mutagenesis set

Substance: NARA1 (antibody)
- signal intensity after subtraction of control signal: 6200 AU
